According to patent publication US12679878B2, “CRF2 receptor agonists and their use in therapy” (SANOFI, priority 2020, dated 2026):
Starred links: 1 amine or outer side, 2 acyl side, 3 side chain; linkers in the order of their positions; H or OH if unused. Non-standard residues stand in square brackets, D forms with d. Groups on a side chain read outwards from the residue. No end group written: not given here. *: point of attachment. C18 diacid = O=C(O)CCCCCCCCCCCCCCCCC(=O)*; γGlu = O=C(O)[C@H](CCC(=O)[*:2])N[*:1]; AEEA = NCCOCCOCC(=O)O; Aib = CC(C)(N)C(=O)O

B1: peptide of SEQ ID NO: 45 (peptide)
peptide: IVLSLDVPIKLK([AEEA-AEEA-γGlu-C18 diacid])QILLEQAKQK[Aib]LKAQAETNVRILERV-NH2
modifications: N-terminus assumed
SMILES: CC[C@H](C)[C@H](N)C(=O)N[C@H](C(=O)N[C@@H](CC(C)C)C(=O)N[C@@H](CO)C(=O)N[C@@H](CC(C)C)C(=O)N[C@@H](CC(=O)O)C(=O)N[C@H](C(=O)N1CCC[C@H]1C(=O)N[C@H](C(=O)N[C@@H](CCCCN)C(=O)N[C@@H](CC(C)C)C(=O)N[C@@H](CCCCNC(=O)COCCOCCNC(=O)COCCOCCNC(=O)CC[C@H](NC(=O)CCCCCCCCCCCCCCCCC(=O)O)C(=O)O)C(=O)N[C@@H](CCC(N)=O)C(=O)N[C@H](C(=O)N[C@@H](CC(C)C)C(=O)N[C@@H](CC(C)C)C(=O)N[C@@H](CCC(=O)O)C(=O)N[C@@H](CCC(N)=O)C(=O)N[C@@H](C)C(=O)N[C@@H](CCCCN)C(=O)N[C@@H](CCC(N)=O)C(=O)N[C@@H](CCCCN)C(=O)NC(C)(C)C(=O)N[C@@H](CC(C)C)C(=O)N[C@@H](CCCCN)C(=O)N[C@@H](C)C(=O)N[C@@H](CCC(N)=O)C(=O)N[C@@H](C)C(=O)N[C@@H](CCC(=O)O)C(=O)N[C@H](C(=O)N[C@@H](CC(N)=O)C(=O)N[C@H](C(=O)N[C@@H](CCCNC(=N)N)C(=O)N[C@H](C(=O)N[C@@H](CC(C)C)C(=O)N[C@@H](CCC(=O)O)C(=O)N[C@@H](CCCNC(=N)N)C(=O)N[C@H](C(N)=O)C(C)C)[C@@H](C)CC)C(C)C)[C@@H](C)O)[C@@H](C)CC)[C@@H](C)CC)C(C)C)C(C)C
B2: peptide of SEQ ID NO: 157 (peptide)
peptide: Ac-IVLSLD[dV]PIKLK([AEEA-AEEA-γGlu-C18 diacid])QILLEQARQK[Aib]QREQAEKNKQILEQV-NH2
SMILES: CC[C@H](C)[C@H](NC(C)=O)C(=O)N[C@H](C(=O)N[C@@H](CC(C)C)C(=O)N[C@@H](CO)C(=O)N[C@@H](CC(C)C)C(=O)N[C@@H](CC(=O)O)C(=O)N[C@@H](C(=O)N1CCC[C@H]1C(=O)N[C@H](C(=O)N[C@@H](CCCCN)C(=O)N[C@@H](CC(C)C)C(=O)N[C@@H](CCCCNC(=O)COCCOCCNC(=O)COCCOCCNC(=O)CC[C@H](NC(=O)CCCCCCCCCCCCCCCCC(=O)O)C(=O)O)C(=O)N[C@@H](CCC(N)=O)C(=O)N[C@H](C(=O)N[C@@H](CC(C)C)C(=O)N[C@@H](CC(C)C)C(=O)N[C@@H](CCC(=O)O)C(=O)N[C@@H](CCC(N)=O)C(=O)N[C@@H](C)C(=O)N[C@@H](CCCNC(=N)N)C(=O)N[C@@H](CCC(N)=O)C(=O)N[C@@H](CCCCN)C(=O)NC(C)(C)C(=O)N[C@@H](CCC(N)=O)C(=O)N[C@@H](CCCNC(=N)N)C(=O)N[C@@H](CCC(=O)O)C(=O)N[C@@H](CCC(N)=O)C(=O)N[C@@H](C)C(=O)N[C@@H](CCC(=O)O)C(=O)N[C@@H](CCCCN)C(=O)N[C@@H](CC(N)=O)C(=O)N[C@@H](CCCCN)C(=O)N[C@@H](CCC(N)=O)C(=O)N[C@H](C(=O)N[C@@H](CC(C)C)C(=O)N[C@@H](CCC(=O)O)C(=O)N[C@@H](CCC(N)=O)C(=O)N[C@H](C(N)=O)C(C)C)[C@@H](C)CC)[C@@H](C)CC)[C@@H](C)CC)C(C)C)C(C)C
B3: peptide of SEQ ID NO: 142 (peptide)
peptide: IVLSLD[dV]PIKLK([AEEA-AEEA-γGlu-C18 diacid])QILLEQARQK[Aib]QREQAEKNKRILERV-NH2
modifications: N-terminus assumed
SMILES: CC[C@H](C)[C@H](N)C(=O)N[C@H](C(=O)N[C@@H](CC(C)C)C(=O)N[C@@H](CO)C(=O)N[C@@H](CC(C)C)C(=O)N[C@@H](CC(=O)O)C(=O)N[C@@H](C(=O)N1CCC[C@H]1C(=O)N[C@H](C(=O)N[C@@H](CCCCN)C(=O)N[C@@H](CC(C)C)C(=O)N[C@@H](CCCCNC(=O)COCCOCCNC(=O)COCCOCCNC(=O)CC[C@H](NC(=O)CCCCCCCCCCCCCCCCC(=O)O)C(=O)O)C(=O)N[C@@H](CCC(N)=O)C(=O)N[C@H](C(=O)N[C@@H](CC(C)C)C(=O)N[C@@H](CC(C)C)C(=O)N[C@@H](CCC(=O)O)C(=O)N[C@@H](CCC(N)=O)C(=O)N[C@@H](C)C(=O)N[C@@H](CCCNC(=N)N)C(=O)N[C@@H](CCC(N)=O)C(=O)N[C@@H](CCCCN)C(=O)NC(C)(C)C(=O)N[C@@H](CCC(N)=O)C(=O)N[C@@H](CCCNC(=N)N)C(=O)N[C@@H](CCC(=O)O)C(=O)N[C@@H](CCC(N)=O)C(=O)N[C@@H](C)C(=O)N[C@@H](CCC(=O)O)C(=O)N[C@@H](CCCCN)C(=O)N[C@@H](CC(N)=O)C(=O)N[C@@H](CCCCN)C(=O)N[C@@H](CCCNC(=N)N)C(=O)N[C@H](C(=O)N[C@@H](CC(C)C)C(=O)N[C@@H](CCC(=O)O)C(=O)N[C@@H](CCCNC(=N)N)C(=O)N[C@H](C(N)=O)C(C)C)[C@@H](C)CC)[C@@H](C)CC)[C@@H](C)CC)C(C)C)C(C)C
B4: peptide of SEQ ID NO: 140 (peptide)
peptide: IVLSLD[dV]PIKLK([AEEA-AEEA-γGlu-C18 diacid])QILLEQARQK[Aib]QRAQAEKNKRILERV-NH2
modifications: N-terminus assumed
SMILES: CC[C@H](C)[C@H](N)C(=O)N[C@H](C(=O)N[C@@H](CC(C)C)C(=O)N[C@@H](CO)C(=O)N[C@@H](CC(C)C)C(=O)N[C@@H](CC(=O)O)C(=O)N[C@@H](C(=O)N1CCC[C@H]1C(=O)N[C@H](C(=O)N[C@@H](CCCCN)C(=O)N[C@@H](CC(C)C)C(=O)N[C@@H](CCCCNC(=O)COCCOCCNC(=O)COCCOCCNC(=O)CC[C@H](NC(=O)CCCCCCCCCCCCCCCCC(=O)O)C(=O)O)C(=O)N[C@@H](CCC(N)=O)C(=O)N[C@H](C(=O)N[C@@H](CC(C)C)C(=O)N[C@@H](CC(C)C)C(=O)N[C@@H](CCC(=O)O)C(=O)N[C@@H](CCC(N)=O)C(=O)N[C@@H](C)C(=O)N[C@@H](CCCNC(=N)N)C(=O)N[C@@H](CCC(N)=O)C(=O)N[C@@H](CCCCN)C(=O)NC(C)(C)C(=O)N[C@@H](CCC(N)=O)C(=O)N[C@@H](CCCNC(=N)N)C(=O)N[C@@H](C)C(=O)N[C@@H](CCC(N)=O)C(=O)N[C@@H](C)C(=O)N[C@@H](CCC(=O)O)C(=O)N[C@@H](CCCCN)C(=O)N[C@@H](CC(N)=O)C(=O)N[C@@H](CCCCN)C(=O)N[C@@H](CCCNC(=N)N)C(=O)N[C@H](C(=O)N[C@@H](CC(C)C)C(=O)N[C@@H](CCC(=O)O)C(=O)N[C@@H](CCCNC(=N)N)C(=O)N[C@H](C(N)=O)C(C)C)[C@@H](C)CC)[C@@H](C)CC)[C@@H](C)CC)C(C)C)C(C)C
B5: peptide of SEQ ID NO: 43 (peptide)
peptide: IVLSLDVPIKLK([AEEA-AEEA-γGlu-C18 diacid])QILLEQAKQKKLRAQAETNVRILERV-NH2
modifications: N-terminus assumed
SMILES: CC[C@H](C)[C@H](N)C(=O)N[C@H](C(=O)N[C@@H](CC(C)C)C(=O)N[C@@H](CO)C(=O)N[C@@H](CC(C)C)C(=O)N[C@@H](CC(=O)O)C(=O)N[C@H](C(=O)N1CCC[C@H]1C(=O)N[C@H](C(=O)N[C@@H](CCCCN)C(=O)N[C@@H](CC(C)C)C(=O)N[C@@H](CCCCNC(=O)COCCOCCNC(=O)COCCOCCNC(=O)CC[C@H](NC(=O)CCCCCCCCCCCCCCCCC(=O)O)C(=O)O)C(=O)N[C@@H](CCC(N)=O)C(=O)N[C@H](C(=O)N[C@@H](CC(C)C)C(=O)N[C@@H](CC(C)C)C(=O)N[C@@H](CCC(=O)O)C(=O)N[C@@H](CCC(N)=O)C(=O)N[C@@H](C)C(=O)N[C@@H](CCCCN)C(=O)N[C@@H](CCC(N)=O)C(=O)N[C@@H](CCCCN)C(=O)N[C@@H](CCCCN)C(=O)N[C@@H](CC(C)C)C(=O)N[C@@H](CCCNC(=N)N)C(=O)N[C@@H](C)C(=O)N[C@@H](CCC(N)=O)C(=O)N[C@@H](C)C(=O)N[C@@H](CCC(=O)O)C(=O)N[C@H](C(=O)N[C@@H](CC(N)=O)C(=O)N[C@H](C(=O)N[C@@H](CCCNC(=N)N)C(=O)N[C@H](C(=O)N[C@@H](CC(C)C)C(=O)N[C@@H](CCC(=O)O)C(=O)N[C@@H](CCCNC(=N)N)C(=O)N[C@H](C(N)=O)C(C)C)[C@@H](C)CC)C(C)C)[C@@H](C)O)[C@@H](C)CC)[C@@H](C)CC)C(C)C)C(C)C
B6: peptide of SEQ ID NO: 131 (peptide)
peptide: IVLSLD[dV]PIKLK([AEEA-AEEA-γGlu-C18 diacid])QILLEQERQK[Aib]QRQQAEKNKQILAQV-NH2
modifications: N-terminus assumed
SMILES: CC[C@H](C)[C@H](N)C(=O)N[C@H](C(=O)N[C@@H](CC(C)C)C(=O)N[C@@H](CO)C(=O)N[C@@H](CC(C)C)C(=O)N[C@@H](CC(=O)O)C(=O)N[C@@H](C(=O)N1CCC[C@H]1C(=O)N[C@H](C(=O)N[C@@H](CCCCN)C(=O)N[C@@H](CC(C)C)C(=O)N[C@@H](CCCCNC(=O)COCCOCCNC(=O)COCCOCCNC(=O)CC[C@H](NC(=O)CCCCCCCCCCCCCCCCC(=O)O)C(=O)O)C(=O)N[C@@H](CCC(N)=O)C(=O)N[C@H](C(=O)N[C@@H](CC(C)C)C(=O)N[C@@H](CC(C)C)C(=O)N[C@@H](CCC(=O)O)C(=O)N[C@@H](CCC(N)=O)C(=O)N[C@@H](CCC(=O)O)C(=O)N[C@@H](CCCNC(=N)N)C(=O)N[C@@H](CCC(N)=O)C(=O)N[C@@H](CCCCN)C(=O)NC(C)(C)C(=O)N[C@@H](CCC(N)=O)C(=O)N[C@@H](CCCNC(=N)N)C(=O)N[C@@H](CCC(N)=O)C(=O)N[C@@H](CCC(N)=O)C(=O)N[C@@H](C)C(=O)N[C@@H](CCC(=O)O)C(=O)N[C@@H](CCCCN)C(=O)N[C@@H](CC(N)=O)C(=O)N[C@@H](CCCCN)C(=O)N[C@@H](CCC(N)=O)C(=O)N[C@H](C(=O)N[C@@H](CC(C)C)C(=O)N[C@@H](C)C(=O)N[C@@H](CCC(N)=O)C(=O)N[C@H](C(N)=O)C(C)C)[C@@H](C)CC)[C@@H](C)CC)[C@@H](C)CC)C(C)C)C(C)C

Target: rat CRF2R α receptor (rat, UniProt P47866 20-411)
Experiment: cell-based or functional assay

Chain of rat CRF2R α receptor (P47866 20-411): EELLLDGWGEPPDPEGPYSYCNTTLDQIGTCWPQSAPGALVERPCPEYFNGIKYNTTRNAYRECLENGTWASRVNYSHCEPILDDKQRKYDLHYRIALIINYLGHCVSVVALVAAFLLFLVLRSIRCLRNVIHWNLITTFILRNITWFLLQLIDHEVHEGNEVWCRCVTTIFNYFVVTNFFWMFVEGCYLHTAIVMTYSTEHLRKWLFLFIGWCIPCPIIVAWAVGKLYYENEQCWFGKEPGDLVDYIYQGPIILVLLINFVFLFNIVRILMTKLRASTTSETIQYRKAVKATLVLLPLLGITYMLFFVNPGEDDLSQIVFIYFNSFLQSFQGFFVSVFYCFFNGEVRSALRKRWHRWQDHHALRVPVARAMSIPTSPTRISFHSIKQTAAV

EC50 [nM], 0% HSA (cAMP, A7R5 cells) [nM] | Binder
47.3 | B1
1.14 | B2
0.2 | B3
0.1 | B4
11.5 | B5
0.39 | B6
